Here are results for 2 molecules from patent publication US9598497B2, “RSPO3 binding agents and uses thereof” (OncoMed Pharmaceuticals, Inc., priority 2012, dated 2017).

Assay [1] has as its system OMP-LU102 lung tumor. Nature of the assay: OMP-LU102 NSCLC xenograft growth. It counts as in vivo, NOD-SCID mice. As to conditions: antibody 25 mg/kg once a week, carboplatin 50 mg/kg once a week, FIG. 11A. As to the method: OMP-LU102 is a patient-derived non-small cell lung cancer (NSCLC) xenograft that was selected for testing based on a high level of RSPO3 expression in microarray data. OMP-LU102 lung tumor cells (1×10^5) were injected into NOD-SCID mice. […] Carboplatin was dosed at 50 mg/kg once a week.

In assay [2] the test system is gene sets characteristic of normal stem cells or cancer stem cells. Nature of the assay: Microarray gene set enrichment analysis of treated OMP-LU102 tumors. It counts as in vivo, NOD-SCID mice. The conditions noted are these: RNA from OMP-LU102 tumors after treatment, FIG. 11B. As to the method:
RNA was prepared from tumors from each of the four experimental groups following the treatment. Gene expression was characterized by microarray analysis.

For assay [3], the system named is OMP-LU45 non-small cell lung tumors. Nature of the assay: OMP-LU45 lung tumor xenograft growth. The assay is classed as in vivo, NOD/SCID mice. As to conditions: 25 mg/kg once a week intraperitoneal, vs control antibody, FIG. 7A. As to the method:
In OMP-LU45 non-small cell lung tumors, it has been observed that CD201^+ cells are more tumorigenic than CD201^− cells. […] Dissociated and sorted OMP-LU45 CD44^+CD201^+ lung tumor cells (5×10^4 cells) were injected into 6-8 week old NOD/SCID mice. Tumors were allowed to grow for 38 days until they reached an average volume of 140 mm^3. The mice were randomized (n=10 per group) and treated with anti-RSPO3 antibody 131R002 or a control antibody. […] Data are expressed as mean±S.E.M.

In assay [4] the test system is OMP-LU25 lung tumor. Nature of the assay: OMP-LU25 lung tumor xenograft growth. The conditions noted are these: 25 mg/kg once a week intraperitoneal, vs control antibody, FIG. 7B. The assay is classed as in vivo, NOD/SCID mice. As for the experimental part:
In a study with a second lung tumor, dissociated OMP-LU25 lung tumor cells (5×10^4 cells) were injected into 6-8 week old NOD/SCID mice. Tumors were allowed to grow for 48 days until they reached an average volume of 110 mm^3. The mice were randomized (n=9 per group) and treated with anti-RSPO3 antibody 131R002 or a control antibody. […] Data are expressed as mean±S.E.M.
OMP-LU25 tumor cells (5×10^4) were injected into NOD-SCID mice. Tumors were allowed to grow for 33 days until they reached an average volume of 120 mm^3. Tumor-bearing mice were randomized into 4 groups (n=9 per group). Tumor-bearing mice were treated with either control antibody, anti-RSPO3 antibody 131R008, paclitaxel, or the combination of anti-RSPO3 antibody 131R008 and paclitaxel. Antibodies were dosed weekly at 20 mg/kg. Paclitaxel was dosed weekly at 15 mg/kg.

Assay [5] deals with RSPO3-induced β-catenin signaling. As to the kind of experiment: TOPflash 6xTCF-luciferase reporter assay in HEK-293 cells with WNT3a and RSPO3. It counts as cell-based, human. As for the experimental part:
HEK-293 cells were transfected with a 6×TCF-luciferase reporter vector (TOPflash, Millipore, Billerica, Mass.). After 24-48 hrs, the transfected HEK-293 cells were incubated with a combination of WNT3a (5 ng/ml) and human RSPO3 (10 ng/ml, R&D BioSystems, Minneapolis, Minn.) in the presence of anti-RSPO3 antibodies 131R002 and 131R003. Antibodies 131R002 and 131R003 were added to the cells in 4-fold serial dilutions from 20 μg/ml to 0.02 μg/ml. As controls, cells were incubated with a combination of WNT3a and RSPO3, WNT3a only, RSPO3 only, or with no addition. The cells were incubated for 16 hours and luciferase activity was measured using Steady-Glo® Luciferase Assay System according to the manufacturer's instructions (Promega, Madison, Wis.).
HEK-293 cells were transfected with a 6×TCF-luciferase reporter vector (TOPflash, Millipore, Billerica, Mass.). After 24-48 hrs, the transfected HEK-293 cells were incubated with a combination of WNT3a and human RSPO3 in the presence of anti-RSPO3 antibodies 131R003, 131R003 CDR1 variant and 131R003 CDR3 variant. 131R003, 131R003 CDR1 variant, and 131R003 CDR3 variant were added to the cells in 5-fold serial dilutions from 20 μg/ml to 0.006 μg/ml. As controls, cells were incubated with a combination of WNT3a and RSPO3, WNT3a only, RSPO3 only, a control antibody, or with no addition. The cells were incubated for 16 hours and luciferase activity was measured using Steady-Glo® Luciferase Assay System according to the manufacturer's instructions (Promega, Madison, Wis.).
HEK-293 cells were transfected with a 6×TCF-luciferase reporter vector (TOPflash, Millipore, Billerica, Mass.). After 24-48 hrs, the transfected HEK-293 cells were incubated with a combination of WNT3a conditioned medium (5 ng/ml) and human RSPO3 (10 ng/ml, R&D BioSystems) in the presence of anti-RSPO3 antibodies 131R002, 131R006B, or 131R007. Antibodies 131R002, 131R006 or 131R007 were added to the cells in 5-fold serial dilutions from 20 μg/ml to 0.0064 μg/ml. As controls, cells were incubated with WNT3a conditioned medium alone, a combination of WNT3a conditioned medium and human RSPO3, or with no addition to cells. The cells were incubated for 16 hours and luciferase activity was measured using Steady-Glo® Luciferase Assay System according to the manufacturer's instructions (Promega, Madison, Wis.).
HEK-293 cells were transfected with a 6×TCF-luciferase reporter vector (TOPflash, Millipore, Billerica, Mass.). […] The cells were incubated for 16 hours and luciferase activity was measured using Steady-Glo® Luciferase Assay System according to the manufacturer's instructions (Promega, Madison, Wis.).
(In general: A reporter such as luciferase makes a cellular process visible.)

Assay [6] addresses T1, human RSPO3 (Homo sapiens, UniProt Q9BXY4).
T1 construct: purchased R&D Systems
T1 sequence (Q9BXY4 22-272): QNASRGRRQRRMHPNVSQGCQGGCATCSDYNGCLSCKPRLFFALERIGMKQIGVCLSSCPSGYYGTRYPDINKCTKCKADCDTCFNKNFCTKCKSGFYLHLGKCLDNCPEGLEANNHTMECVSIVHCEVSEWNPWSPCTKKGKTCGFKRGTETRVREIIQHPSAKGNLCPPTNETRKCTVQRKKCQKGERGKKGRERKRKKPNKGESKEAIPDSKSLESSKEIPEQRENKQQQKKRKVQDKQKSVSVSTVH
As to the kind of experiment: Biacore 2000 affinity, antibody captured by anti-human IgG, RSPO3 injected (Example 10). The assay is classed as binding. As to conditions: human RSPO3 300 nM to 37.5 nM over captured antibody, Table 4. As for the experimental part:
The method used was different than described in Example 3. A goat anti-human IgG antibody was coupled to a carboxymethyl-dextran (CM5) SPR chip using standard amine-based chemistry (NHS/EDC) and blocked with ethanolamine. Antibodies (purified antibody or culture supernatant) were diluted to a concentration of 10 μg/ml in HBS-P-BSA (0.01M HEPES pH7.4, 0.15M NaCl, 0.005% v/v Polysorbate 20, 100 ug/ml BSA) and captured onto the chip via the anti-human IgG antibody. Human RSPO3 (R&D Systems) was serially diluted 2-fold from 300 nM to 37.5 nM in HBS-P-BSA and injected sequentially over the captured anti-RSPO3 antibodies. RSPO3 association and dissociation was measured at each concentration. After each antigen injection 5 μl of 100 mM H3P04 was injected to remove the antigen-antibody complex and a subsequent injection performed. Kinetic data were collected over time and were fit using the simultaneous global fit equation to yield affinity constants (KD values) for each antibody (Table 4).
On the technique in general: In SPR one partner is held on a chip, and binding of the other changes the refractive index at the surface.

For assay [7], the target named is T2, binding of RSPO3 to LGR5 (Homo sapiens, UniProt Q9BXY4).
T2 construct: expressed in transfected cells; host or cells: HEK-293T
T2 sequence (Q9BXY4 22-272): T1 sequence (Q9BXY4 22-272)
As to the kind of experiment: FACS inhibition of RSPO3-biotin binding to LGR5-expressing HEK-293T cells. As to conditions: PE-streptavidin, flow cytometry, FIG. 9. As to the method:
HEK-293T cells were transfected with a cDNA expression vector that encoded the extracellular domain of human LGR5 (FLAG-LGR5-CD4TM-GFP). Transfected cells were incubated with recombinant RSPO3-biotin fusion protein in the presence of anti-RSPO3 antibodies 131R006B or 131R007. Cells were incubated without antibody as a control. Cells were washed in PBS and binding of RSPO3 to LGR5-expressing transfected cells was determined by addition of PE-conjugated streptavidin and analysis by flow cytometry.

Substitutions are numbered along the chain they refer to.

B1: 131R002: anti-RSPO3 antibody from a mammalian cell antibody library; heavy chain variable region SEQ ID NO:15, light chain variable region SEQ ID NO:17 (antibody, V domains shown)
VH: QVQLQESGPELVKPGASVKISCKASGYTFTDYSIHWVKQNHGKSLDWIGYIYPSNGDSGYNQKFKNRATLTVDTSSSTAYLEVRRLTFEDSAVYYCATYFANYFDYWGQGTTLTVSSAST
VL: DIVLTQSPASLAVSLGQRATISCKASQSVDYDGDSYMNWYQQKPGQPPKLLIYAASNLESGIPARFSGSGSGTDFTLNIHPVEEEDAATYYCQQSNEDPLTFGAGTKLELKR
modifications: 131R002 Heavy chain variable region; 131R002/131R003 Light chain variable region
On to B1, for which the “OMP-LU102 lung tumor growth” value in assay [1] was “inhibited OMP-LU102 lung tumor growth as a single agent”. Also, the “expression of gene sets characteristic of normal stem cells or cancer stem cells” value in assay [2] is given as “inhibited the expression of various gene sets characteristic of normal stem cells or cancer stem cells”. The “OMP-LU45 lung tumor growth” value in assay [3] is “inhibited growth”. Moreover, the “OMP-LU25 lung tumor growth” value in assay [4] is on record as “inhibited growth”. For the same molecule, in assay [5] (WNT3a 5 ng/ml + RSPO3 10 ng/ml, antibody 20 to 0.02 μg/ml, FIG. 3), the “RSPO3-induced β-catenin signaling” value is “reduced RSPO3-induced β-catenin signaling in a dose-dependent manner”.

B2: h131R007: humanized 131R003 variant, IgG2; heavy chain variable region SEQ ID NO:44, light chain variable region SEQ ID NO:72 (antibody, V domains shown)
VH: QVQLVQSGAEVKKPGASVKVSCKASGYTFTDYSIHWVRQAPGQGLEWIGYIYPSNGDSGYNQKFKNRVTMTRDTSTSTAYMELSRLRSEDTAVYYCATYFANNFDYWGQGTTLTVSS
VL: B1 VL with S22T, N78T, H80N, E84A, A87V
modifications: Humanized 131R005/131R007/131R008/ 131R010/131R011 Heavy chain variable region; Humanized 131R005/131R007/131R008 Light chain variable region
The Kd is the equilibrium constant for the complex coming apart. High values mean weaker binding, low ones tighter binding. Consider B2, for which the Kd in assay [6] came out at 0.654 nM. In addition, in assay [5] (WNT3a conditioned medium 5 ng/ml + human RSPO3 10 ng/ml, FIG. 8), the “ability to inhibit β-catenin activity compared with 131R002” value is recorded as “greater ability to inhibit β-catenin activity than antibody 131R002”. In assay [7], the “blocking binding of RSPO3 to LGR5-expressing cells” value is on record as “highly effective in blocking binding of RSPO3 to LGR5-expressing cells”.
